Reference: the supplement of paper PMC12764529
± gives the half width of the 95% confidence interval.

Experiments:
[1] = folding stability dG unfold (combined trypsin and chymotrypsin); higher = more stable
How it was run: (§1)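 Designed mini-proteins (under 80 residues, no cysteine) in a PA-tagged cDNA display construct were digested with trypsin and chymotrypsin. Each protease was used at 11 concentrations (threefold dilutions) plus a no-protease condition, followed by sequencing. K50 was inferred by Bayesian fitting of sequencing counts, and unfolding free energy was derived against a sequence-predicted unfolded-state K50 and a shared folded-state K50, per protease or combined. Only designs with AlphaFold2 dimer inter-PAE above 15 were kept.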

[2] = folding stability dG unfold from chymotrypsin proteolysis; higher = more stable
How it was run: as §1

[3] = folding stability dG unfold from trypsin proteolysis; higher = more stable
How it was run: as §1

Sequence	folding stability dG unfold [1]	folding stability dG unfold [2]	folding stability dG unfold [3]
SAGGKTVTTPEQILELIKENPGKTYTITITVPKENQKKVEELKKALEEAGLTVEENENGTLTVTIKPSAGGS [r16_335_TrROS_Hall]	3.42 ± 0.28 kcal/mol	3.89 ± 0.14 kcal/mol	2.2 ± 0.17 kcal/mol
SMKIEVSGGNVTVEMYMWRRKKERDPDDPGKERDQPEPMPQTHTIDPNDPEAAKKFLDKFPPGFRPEIHDSA [r9_476_TrROS]	0.446 ± 0.25 kcal/mol	0.0896 ± 0.43 kcal/mol	0.594 ± 0.19 kcal/mol
SAGGKKIEIKEGDTVKLKNATITLNGKTFKIKDAEAKVVKVDKKKKKVIIEITLKNGKKETFVFDIKSAGGS [r8_215_TrROS_Hall]	3.15 ± 0.16 kcal/mol	3.331 ± 0.026 kcal/mol	2.4 ± 0.13 kcal/mol
SAGGSAGGSAGGSPPNMEPVETQEYQIGNDFIIKVDTYRMPDPDMYFVDIEITPDALKASAGGSAGGSAGGS [r4_163_TrROS]	1.28 ± 0.3 kcal/mol	1.82 ± 0.17 kcal/mol	0.82 ± 0.12 kcal/mol
SAGGSAGGSKLEEILKKLPPNAKITIEKDEETNVYTITITNKNGEKYTFTFSKEEVKKLLEKLSAGGSAGGS [r12_174_TrROS_Hall]	4.62 ± 0.22 kcal/mol	4.76 ± 0.24 kcal/mol	3.13 ± 0.19 kcal/mol
SAGYEWVRELAKKKGFKDIKIEDVQPQRPPDGMEYMHVRIEVQHPGKKREVDIWMRPDNIEEALEQALKSAG [r5_549_TrROS]	0.766 ± 0.11 kcal/mol	0.993 ± 0.08 kcal/mol	0.402 ± 0.096 kcal/mol
SAGGSAGGSAGGMVKIKLKNGKWYEAKVTEIDEDGNVVVELPNGKKFTVPAKDLEIEVLPSAGGSAGGSAGG [r7_823_TrROS_Hall]	3.69 ± 0.11 kcal/mol	3.7 ± 0.097 kcal/mol	3.77 ± 0.29 kcal/mol
KTITIVIKNEDGELYVIKIKLKNGEEKEIVFKSLEELKNAIAKELGLSKEKIEIVEIKPLSPEELKELEKKS [r1_119_TrROS_Hall]	3.33 ± 0.35 kcal/mol	3.96 ± 0.14 kcal/mol	1.99 ± 0.13 kcal/mol
SAGGMKLKPVKEGEEIEIELEIVDKETKKVYKVKAKITVVKDKETKEYYVKIEIENPETGEKYTFLLKSAGG [r13_262_TrROS_Hall]	2.21 ± 0.36 kcal/mol	2.34 ± 0.12 kcal/mol	2.17 ± 0.13 kcal/mol
SAGGSAGGEKTTVLVRVELYLEDTEVVELPDFVFTDLTEEQVLEEVRKLGLPDNVKVEIIPLPASAGGSAGG [r6_88_TrMRF]	2.47 ± 0.11 kcal/mol	2.46 ± 0.11 kcal/mol	2.53 ± 0.073 kcal/mol
SAGGSAGGSAVKIKIEQLGPGYFHITIEQEMMYPDGKSRKMTMTMMFKVNAPPNDPALRELLSAGGSAGGSA [r18_215_TrROS]	2.97 ± 0.13 kcal/mol	2.98 ± 0.088 kcal/mol	2.69 ± 0.059 kcal/mol
KVEIKVEIEVKYNKETGKKVVKIRITVKEGSKEEAEKLAAELAKELFGPNVKVTVEYDKETDEITVTLVFPS [r1_273_TrROS_Hall]	3.96 ± 0.2 kcal/mol	4.06 ± 0.18 kcal/mol	3.57 ± 0.15 kcal/mol
SALPPGTTVTYTFYDPATGALVTVTVTTLPDGTVRVTLTVYDPSTGETTTVTFTVDGATLDELLDFIRAGSA [r9_618_TrMRF]	5.37 ± 0.32 kcal/mol	5.28 ± 0.18 kcal/mol	3.77 ± 0.3 kcal/mol
SAGEPEKVTITLVDEETGVVITIEIDKETKKITITVESEEERERARELAERLAKELEEAGIKVEILPPSAGG [r19_354_TrROS_Hall]	2.73 ± 0.16 kcal/mol	2.26 ± 0.18 kcal/mol	2.91 ± 0.14 kcal/mol
SAGGSAGGSAGGGSSMITLERESEPGETFEFNFPGVSEVTVTEVIPGDGKVTVKVEVTSPSAGGSAGGSAGG [r7_292_JUSTAS]	0.537 ± 0.11 kcal/mol	0.0882 ± 0.09 kcal/mol	0.782 ± 0.059 kcal/mol
SAGGSAGGSAGGGMESKTTVTEEFSPEEVKTVTTVTTYPDGSVTETPENVKVPPGALAGSAGGSAGGSAGGS [r10_280_JUSTAS]	1.49 ± 0.11 kcal/mol	1.92 ± 0.13 kcal/mol	0.1 ± 0.053 kcal/mol
SAGGGMTPVKKEYVVTLPVPPGMTEEEARELAERAAEELRPELEAKGLAYEVTFELSPEGLVTVTVVASAGG [r13_529_JUSTAS]	2.31 ± 0.034 kcal/mol	2.41 ± 0.025 kcal/mol	2.19 ± 0.042 kcal/mol
SAGGSAPEPIRFYFWWPGKIIEITIPPDEIEKVEIKPDNGDIDITVKLPGEEVEISITPGAIHVQTSAGGSA [r15_598_TrROS]	2.29 ± 0.17 kcal/mol	2.57 ± 0.032 kcal/mol	1.56 ± 0.11 kcal/mol
SSKTVTVTTEEEEKEAREKIKELVKPGKSVDVEITMTGPDGTRTRRTYKITTNPDGTITIEETETPLPPPSA [r9_1023_JUSTAS]	2.17 ± 0.21 kcal/mol	2.43 ± 0.057 kcal/mol	1.5 ± 0.034 kcal/mol
SMNIVEIEVEEKIIGDTTTITIPIKVNGPAVSEEEIKKIVEDIFKKKGLKINIKIEKDPNSGVITITIIESA [r9_717_JUSTAS]	2.33 ± 0.19 kcal/mol	2.55 ± 0.12 kcal/mol	2.01 ± 0.15 kcal/mol
SAGGSAGGSAGGDPNDKPKEERRIKIKVRPTNVQRDPDNGMLWYSWRLEGLSITIMIPASAGGSAGGSAGGS [r10_962_TrROS]	2.85 ± 0.1 kcal/mol	3.43 ± 0.035 kcal/mol	1.86 ± 0.08 kcal/mol
